# B1: TPR t1 (parent)
# chain: GACCAAUCUGCCCUCAGAGCUCGAGAACAUCUUCGGAUGCAGAGGAGGCAGGCUUCGGUGGCGCGAUAGCGCCAACGUCCUCAACCUCCAAUGCAUCCCACCACAUGAUGAUGCCUGAAGAGCCUUGGUUUUUUG
# Variants of: B1
# Assay: polymerase ribozyme fitness, log enrichment relative to wild type (log ratio); higher = more active; in vitro selection for triplet polymerase activity
# How it was run: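 Both subunits of a heterodimeric triplet polymerase ribozyme were given their own mutant library, built by PCR and transcribed. Each library was annealed with a biotinylated primer, the partner subunit and triplets, incubated frozen at −7 °C, and its extended constructs gel-excised, captured on streptavidin beads and amplified by RT-PCR, all in one round done in triplicate. Fitness is the logarithm of genotype enrichment relative to wild-type enrichment, with replicates averaged by inverse-variance weighting. That logarithm is base 2, and Illumina-sequenced genotypes needed ≥10 input reads and ≥1 read per output.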
row,Variant,polymerase ribozyme fitness (log ratio)
1,GACCAAUAUGCCCUCAGAGCUCGAGAACAUCUUCGUAUGCAGAGGAGGCAGGCUUCGGUGGCGCGAUAGCGCCAACGUCCUCAACCUCCAAUGCAUCCCACCACAUGAUGAUGCCUGAAGAGCCUUGGUUUAUUG [C8A G36U U132A],-1.09
2,GACCAAUAUGCCCUCAGAGCUCGAGAACAUCUUCGGAUGCAGAGGAGGCAGGCUUCGGUGGCGCGAUAGCGCCAACGUCCUCAACCUCAAAUGCAUCCCACCACAUGAUGAUGCCUGAAGAUCCUUGGUUUUUUG [C8A C89A G122U],-0.485
3,GACCAAUAUGCCCUCAGAGCUCGAUCACAUCUUCGGAUGUAGAGGAGGCAGGCUUCGGUGGCUCGAUAGCGCCAACGUCCUCAACCUGCAAUGCAUCCCACCACAUGAUGACGCCUGAAGAGAAUUGGUAUUUUG [C8A G25U A26C C40U G63U C88G U112C C123A C124A U130A],-7.64
4,GACCAAUAUGCCCUCAGAGCUCGAGAACAUCUUCGGAUGCAGAGGAGGAAGGCUUCGGUGGCGCGAUAGCUCCAACGUCCUCAACAUCCAAUGCAUCCCACCACAUGAUGAUGCCUGAAGAACCUUGGUUUUUUG [C8A C49A G71U C86A G122A],-0.666
5,GACCAAUAUGCCCUCAGAACUCGAGAACAUCUUCGGAUGCAGAGGAGGCGGGCAUCGGUGGCGCGAUAGCGCCAACGUCCUCAACCUCCAAUGCAUCCCACCCCAUGAUGAUGCCUGAACAGCCUUGGUUUUUUG [C8A G19A A50G U54A A103C G120C],-5.02
6,GACCAAUAUGCCCUCAGAGCUCGAGAACAUAUUCGGAUGCAGAGGAGGCAGGCUUCGGUGGCGCGAUAGCGCCAACGUCCUCAACCUCCAAUGCAUCCCACCACAUGAUGAUGCCUGAAGAGCCUUGGUUUUUUG [C8A C31A],-5.54
7,GACCAAUAUGCCCUCAGAGCUCGAGAACAUCUUCGGAUGCAGAGGACGCAGGCUUGGGUGGCGCGAUAGCGCCAACGUCCUUAACCACCAAUGCAUCCCAUCACAUUAUGAUGCUUGCAGAGCCUUGGUUUUUUG [C8A G47C C56G C82U U87A C101U G107U C115U A118C],-6.49
8,GACCAAUAUGCCCUCAAAGCUCGAGAACAUCUUCGGAUGCAGAGGAGGCAGGCAUCGGUGGCGCGAUAGCUCCAACGUCCUCAACCUCCAAUGAAUCCCACCACAUGAUGAUGCCUGAAGAGCCUUGGUUUUUUG [C8A G17A U54A G71U C94A],-4.99
9,GACCAAUAUGCCCUCAGAGCUCGAGAACAUCUUCGGAUGCAGAGGAGGCAGGGUUAGGUGGCGCGAUAGUGCCAACGUCCUCAACCUCCAAUGCAUUCCACCACAUGAUGAAGCCUGAAGAGCUUUGGUUUUUUG [C8A C53G C56A C70U C97U U112A C124U],-0.44
10,GACCAAUAUGCCCUCAGAGCUCGAGAACAUCUUCGGAUGCAGAGCAGGCCGGCUUCCGUGGCGCGAUAGCGCCAACGUCCUCAACCUCCAAUCCAUCCCACCACAUGAUGAUGCCUGAAGAGCCUUGGUUUUUUG [C8A G45C A50C G57C G93C],-2.56
11,GACCAAUAUGCCCUCAGAGCUCGAGAACAUCUUCGGAUGCAUAAGAGGCAGGCUUCGGUGGCGCGAUAGCGCCAACGUCCUCAACCUCCAAUGCAUCCCACCACAUGAUGAUGUCUGAAGAGCCUUGGUUUUUUG [C8A G42U G44A C114U],-1.01
12,GACCAAUAUGCCCUCAGAGCUCGAGAACAUCUUCGGAUGCAGAGGAGGCAGGUUACGGUGGCGCGAUAGCGCCAACAUCCUCAACCUCAAAUGCAUCCCACCACAUGAUGAUGCCUGAAGAGCCUUGGCUUUUUG [C8A C53U U55A G77A C89A U129C],-3.11
13,GACCAAUAUGCCCUCAAAGCUCGAGAACAUCUUCGGAUGCAGAGGAGGCAGGCUUCGGUGGCGCGAUAGCGUCAACGUCCUCAACCUCCAAUGCAUCCCACCACAUGAUGAUGCCUGAAGAGCCUAGGUUUUUUG [C8A G17A C72U U126A],-3.12
14,GACCAAUAUGCCCUCAGAGCUCGAGAACAUCUUCGUAUGCAGAGGAGGGAGGCUUCGGUGGCGCGAUAGCUCCAACGUCCUCAACCUCCAAUGCAUCCCACCACAUGAUGAUGCCUGAAGAGCCUUGGUUUUUUG [C8A G36U C49G G71U],-1.2
15,GACCAAUAUGCCCUCAGAGCUCGAGAACAUCUUCGGAUGCAGAGGAGGCAGGCUUCGGUGGCGCGAUAGCGCCAACGUCCUCAACCUCCAAUGCAUCCCAUCACAUGAUGAUGCCUUAAGAGCCUUGGUUUUUUG [C8A C101U G117U],-0.423
16,GACCAAUAUGCCCUCAGAGCUCGAGAACAUCUUCGGAUGCAGAGGAGGCAGGCUUCGGUGGCGCGAUAGCGGCAACGUCCUCAACCUCCAAUGCAUCCCACCACAUGAUGAUGCCUGAAGAGCCUUGGUUUUGUG [C8A C72G U133G],0.138
17,GACCAAUAUGCCCUCAGAGCUCGAGAACAUCUUCGGAUGCAGAGGAGGCAGGCUUCGGUGGCGCGAUAGCGCCAACGUCCUCAACCUCCAAUGCAUACCACCACAUGAUGAUGCCUGAACAGCCUUGGUUUUUUG [C8A C97A G120C],-3.2
18,GACCAAUAUGCCCUCAGAGCUCGAGAACAUCUUCGGAUACAGAGGAGGCAGGCUUCGGUGGCGCGAUAGCGCCAACGUUCUCAACCUCCAAUGCAUCCCACCACAUGAUGAUGCCUGAAGAGCCUUGGUUUUUUG [C8A G39A C79U],0.0227
19,GACCAAUAUGCCCUCAGAGCUCGAGAACAUCUUCGGAUGCAGAGGAAGCAGGCUUCGGUGGCGCGAUAGCGCCAACGUCAUCAACCUCCAAUGCAUCCCACCACAUGAUGAAGCCUGAAGAGCCUUGGUUUUUUG [C8A G47A C80A U112A],-5.77
20,GACCAAUAUGCCCUCAGAGCUCGAGAACAUCUUCCGAUGCAGAGGAGGCAGGCUUCGGUGGCGCGAUAGCACCAACGUCCUCAACCUCCAAUGCAUCCCACCACAUGAUGAUGCCUGAAGAGCCUUGGUUUUUUG [C8A G35C G71A],-5.94
21,GACCAAUAUGCCCUCAGAGCUCGAGAACAUCUUCGGAUGCAGAGGAGGCAGGCUUCGGUGGCGCGAUAGCGCCAACGUCCUCAACCUACAAUGCAUCCCACCACAUGAUGAUGCCUGAAGAGCCUUGGUUUUUUG [C8A C88A],0.0973

row,Variant,polymerase ribozyme fitness (log ratio)
1,GACCAAUAUGCCCUCAGAUCUCGAGAACAUCUUCGGAUGCAGAUGAGGCAGGCUUCGGUGGCGCGAUAGCGCCAACGUCCUCAACCUCCAAUGCAUUCCACCACAUGAUGAUGCCUGAAGAGCCUUGGUUUUUUG [C8A G19U G44U C97U],-3.97
2,GACCAAUAUGCCCUCAGAGCUCGAGAACAUCUUCGGAUGCAGAGGAGGCAGGCUUCGGUGGCGCGAUAGCGCCAACGUACUCAACCUCCAAUGCAUCCCACCACAUGAUGAUGCCUGAAGAGCCUUGGUUUUUUG [C8A C79A],-0.182
3,GACCAAUAUGCCCUCAGAGCUCGAGAACAUCUUCGGAUGCAGAGGAGGCAGGCUUCGGUGGCGCGAUAGCGCCAACGUGCUCAACCUCCAAUGCAUCCCACCACAUGAUGAUGCCUGAAGAGCCUUGGUUUUUUG [C8A C79G],-1.65
4,GACCAAUAUGCCCUCAGAGCUCGAGAACAUCUUCAGAUGCAGAGGAGGCAGGCUUCGGUGGCGCGAUAGCGCCAACGUCCUCAACCUCUAAUGCUUCCCACCACAAGAUGAUGCCUGAAGAGCCUUGGUUUUUUG [C8A G35A C89U A95U U106A],-4.65
5,GACCAAUAUGCCCUCAGAGCUCGAGAACAUCUUCGGAUGCAGAGGAGGCAGGCUUCGGUGGCGCGAUAGCGCCAACGUCCUCAACCUCCAAUGCAUCCCACCACAUGAUGAUGUCUGAAGAGCCUCGGUUUUUUG [C8A C114U U126C],-2.4
6,GACCAAUAUUCCCUCAGAGCUCGAGAACAUCUUCGGAUGCAGAGGAGGCAGGCUUCGGUGGCGCGAUAGCGCAAACGUCCUCAACCUCCAAUGCAUCCCACCACAUGAUGAUGCCUGAAGAGCCUUGGUUUUUUG [C8A G10U C73A],-0.361
7,GACCAAUAUGCCCUCAGAGCUCGAGAAUAUCUUCGGAUGCAGAGGAGGCAGUCUUCGGUGGCGCGAUAGCGCCAACGUCCUCAACCUCCAAUGCAUCCCACCACAUGAUGAUGCCUCAAGAGCAUUGAUUUUAUG [C8A C28U G52U G117C C124A G128A U133A],-6.69
8,GACCAAUAUGCCCUCAGAGCUCGAGAACAUCUUCGGAUGCAGAGGAGGCAGGCUUCGGUGGCGCGAUAGUGCCAACGUCCUCAACCUUCAAUGCAUCCCACCACAUGAUGAUGCCUGAAGAGCCUUGGUUUUUUG [C8A C70U C88U],-0.306
9,GACCAAUAUGCCCUCAGAGCUCGAGAACAUCUUCAGAUGCAGAGGAGGCAGGCUUCGGUGACGCGAUAGCGCCAACGUCCUCAACCUCUAAUGCUUCCCACCACAAGAUGAUGCCUGAAGAGCCUUGGUUUUUUG [C8A G35A G61A C89U A95U U106A],-6.13
10,GACCAAUAUGCCCUCAGAGCUCGAGAACAUCUUCGGAUGCAGAGGAGGCAGGCUUCGGUGGCGCGAUAGCGCCAACGUCCUCAACCUCCAAUGCAUCCCACCACAUGAUGAUGCGUGAAGAGCCUUGGUUUUUUG [C8A C115G],-0.0701
11,GACCAAUAUGCCCUCAGAGCUCGAGAACAUCUUCGGAUGCAGAGGAGGCAGGCUUCGGUGGCGCGAUAGCGCCAACGUCCUCAACCUCCAAUGCAUCCCACCACAUGAUGAUGCUUGAAGAGCCUUGGUUUUUUG [C8A C115U],-0.595
12,GACCAAUAUGCCCUCAGAGCUCGAGAACAUCUUCGGAUGCAGAGGAGGCAGGCUUCGGUGGCGUGAUAGCGCCAACGUCCUCAACCUCCAAUGCAUCCCACCACAUGAUGAUGCCUGAAGAGCCUUGGUUUUUUG [C8A C64U],0.575
13,GACCAAUAUGCCCUCAGAGCUCGAGAACAUCUUCGGAUGGAGAGGAGGCAGGCUUCGGUGGCGCGAUAGCGCCAACGUCCUCAUCCUCCAAUGCAUCCCACCACAUGAUGAUGCCUGAAGAGCCUUGGUUUUUUG [C8A C40G A84U],-0.858
14,GACCAAUAUGCCCUCAGAGCUCGAGAACAUCUUCGGAUGCAGAGGAGGCAGGCUUAGGUGGCGCGAUAGCGCCAACGUCCUCAACCUCCAAUGCAUCCCACAUCAUGAUGAUGCCUGAAGAGCCUUGGUUUUUUG [C8A C56A C102A A103U],-3.2
15,GACCAAUAUGCCCUCAGAGCUCGAGAACAUCUUCGGAUGCAGAGGAGGCAGGGUUCGGUGGCGCGAUAGCGCCAACGUCCUCAACCUCCAAUGCAUCCCACCACAUGAUGAUGCCUGAAGAGCCUUGGUUUUUUG [C8A C53G],-0.744
16,GACCAAUAUUCCCGCAGAGCUCGAGAACAUCUUCGGAUGCAGAGGAGGCAGGCUUAGGUGGCGUGAUAGCGCCAACGACCUCAACAUCCAAUGCAUCCCAUCACAUGAUGAUGCCUGAAGAGCCUUGGUUUUUUG [C8A G10U U14G C56A C64U U78A C86A C101U],-2.72
17,GACCAAUAUGCCCUCAGAGCUCGAGAACAUCUUCGGAUGCAGAGGACGCAGGCUUCGGUGGCGCGAUAGCGCCAACGUCCUCAACCUCCAAUGCAUCCCACCACAUGAUGAUGCCUGAAGAGCCUUGGUUUUUUG [C8A G47C],-1.8
18,GACCAAUAUGCCCUCAGAGCUCGAGAACAUCUUCGGAUGCAGAGGAGGCAGGCUUCGGUGGCGCGAUAGCGCCAACGUCCUCAACCUCCAAUGCAUCCCACCACAUGAUGAUGCCUGAAGAGCGUUGGUUUUUUG [C8A C124G],1.76
19,GACCAAUAUGCCCUCAGAGCUCGAGAACAUCUUCGGAUGCAGAGGAGGCAGGCUUCGGUGGCGCGAUAGCGCCAACGUCCUCAACCUCCAAUGCAUCCCAGCACAUGAUGAUGCCUGAAGAGCCUUGGUUUUUUG [C8A C101G],-1.63
20,GACCAAUAUGCCCUCAGAGCUCGAGAACAUCUUCGGAUGCAGAGGAGGCAGGCUUCGGUGGCGGGAUAGCGUCAACGUCCUCAACCUCCAAUGCAUCCCACCACAUGAUGAUGCCUGAAGGGCCUUGGUUUUUUG [C8A C64G C72U A121G],-6.31
21,GACCAAUAUGCCCUCAGAGCUCGAGAACAUCUUCGUAUGCAGAGGAGGCAGGCUUCGGUGGCGCGAUAACGCCAACGUCCUCAACCUACAAUGCAUCCCACCACAUGAUGAUGCUUGAAGAGCCUUGGUUGUUUG [C8A G36U G69A C88A C115U U131G],-6.31

# Source: the RNAGym collection of RNA variant scans (doi:10.1073/pnas.2313332121)
